According to IntAct's records for PubMed 29610859:

Molecular target: ubql1_human UBQLN1 (UniProt Q9UMX0)
Sequence (Q9UMX0 whole entry): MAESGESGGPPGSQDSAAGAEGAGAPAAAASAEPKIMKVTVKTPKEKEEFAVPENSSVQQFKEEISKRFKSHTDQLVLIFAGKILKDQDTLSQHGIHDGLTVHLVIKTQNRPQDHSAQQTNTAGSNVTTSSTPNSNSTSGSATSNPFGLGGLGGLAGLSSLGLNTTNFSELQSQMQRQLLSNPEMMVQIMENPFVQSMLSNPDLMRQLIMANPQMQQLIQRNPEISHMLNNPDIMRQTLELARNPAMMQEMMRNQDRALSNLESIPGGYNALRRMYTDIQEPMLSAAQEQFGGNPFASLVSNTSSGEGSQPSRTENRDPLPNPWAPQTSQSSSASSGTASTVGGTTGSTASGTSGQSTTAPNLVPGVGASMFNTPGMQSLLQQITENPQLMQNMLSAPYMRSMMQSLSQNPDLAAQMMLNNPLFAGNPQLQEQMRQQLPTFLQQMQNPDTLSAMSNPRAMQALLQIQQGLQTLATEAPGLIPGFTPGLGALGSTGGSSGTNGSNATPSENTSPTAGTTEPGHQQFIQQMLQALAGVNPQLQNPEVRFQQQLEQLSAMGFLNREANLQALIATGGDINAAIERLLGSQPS

effect of a mutation on the interaction: with no effect
Substance: Cytochrome c oxidase subunit 1 (Homo sapiens) (from UniProt P00395) V83I
